Test results from paper PMC4197845.
Read-outs that look alike come from different tables or passages of the source.

Key:
[1] = molecular target: epidermal growth factor receptor on live cells (human (endogenous in UM-SCC-14C and A431)) (UniProt P00533); assay: radioligand binding
[2] = molecular target: epidermal growth factor receptor on live cells (human (endogenous in UM-SCC-14C and A431)) (UniProt P00533); assay: radioligand binding; remark: listed apart in the source

A Kd [1] of 7.5 nM and a Kd [2] of 7.1 nM were found for “bi-paratopic nanobody 9G8-7D12 (bispecific antibody)” in this work.
